Earlier results, collected in US20220119510A1, “ANTI-POLYETHYLENE GLYCOL (PEG) ANTIBODY MOUSE MODEL FOR RIGOROUS ASSESSMENT OF PEG-BASED THERAPIES: ADJUVANT-FREE INDUCTION MODEL” (Northwestern University, priority 2020, published 2022).

System: rabbits

B1: PEGylated ovalbumin: PEGylated ovalbumin used to immunize rabbits (conjugate, UniProt P01012 2-386, looked up)
Ovalbumin: GSIGAASMEFCFDVFKELKVHHANENIFYCPIAIMSALAMVYLGAKDSTRTQINKVVRFDKLPGFGDSIEAQCGTSVNVHSSLRDILNQITKPNDVYSFSLASRLYAEERYPILPEYLQCVKELYRGGLEPINFQTAADQARELINSWVESQTNGIIRNVLQPSSVDSQTAMVLVNAIVFKGLWEKAFKDEDTQAMPFRVTEQESKPVQMMYQIGLFRVASMASEKMKILELPFASGTMSMLVLLPDEVSGLEQLESIINFEKLTEWTSSNVMEERKIKVYLPRMKMEEKYNLTSVLMAMGITDVFSSSANLSGISSAESLKISQAVHAAHAEINEAGREVVGSAEAGVDAASVSEEFRADHPFLFCIKHIATNAVLFFGRCVSP
modifications: PEGylated
notes: PEGylated ovalbumin used to immunize rabbits
- anti-PEG antibodies after immunization: anti-PEG antibodies were first observed
